This note sets out measurements from patent US20230414780A1 (VECT HORUS, published 2023).

Experiment [1] addresses T1, mouse transferrin receptor (mTfR) fused to EGFP, on CHO cells (mouse, UniProt Q62351 1-763).
T1 construct: whole, on cells; also called mouse TfR; CHO-mTfR-EGFP; not shown: EGFP
Nature of the experiment: apparent Kd, flow cytometry, CHO cells. As for the experimental part:
(§1) All experiments were performed in 96 well plates using 2×10⁵ cells/well, at 4° C. with shaking. CHO cell lines stably expressing the hTfR or the mTfR fused to EGFP or CHO WT cells were saturated with PBS/BSA 2% solution during 30 min to avoid non-specific binding, followed by incubation with purified VHHs at concentrations ranging from 50 μM to 5 μM for 1 hr. After one wash in PBS/BSA 2%, cells were incubated for 1 hr with an anti-6His tag antibody (mouse), washed twice with PBS/BSA 2%, and incubated for 45 min with an Alexa647-conjugated anti-mouse secondary antibody. After two last washes in PBS/BSA 2%, cells were fixed by incubation for 15 min with PBS/PFA 2%, washed once with PBS and finally resuspended in PBS and stored at 4° C. Fluorescence levels were assessed using an Attune NxT Flow Cytometer (Thermo Fisher Scientific). […] No labeling of the CHO WT control cells was detected with all the tested VHHs (not shown). The VHH K_{d app} were calculated using GraphPad Prism software (FIG. 11-B; 12-B).

Experiment [2] deals with T2, human transferrin receptor (hTfR) fused to EGFP, on CHO cells (human, UniProt P02786 1-760).
T2 construct: whole, on cells; also called human TfR; CHO-hTfR-EGFP; not shown: EGFP from pEGFP-C1 vector, fused to the N-terminal (intracellular) end of hTfR
T2 sequence (P02786 whole entry, the tested form may be a part): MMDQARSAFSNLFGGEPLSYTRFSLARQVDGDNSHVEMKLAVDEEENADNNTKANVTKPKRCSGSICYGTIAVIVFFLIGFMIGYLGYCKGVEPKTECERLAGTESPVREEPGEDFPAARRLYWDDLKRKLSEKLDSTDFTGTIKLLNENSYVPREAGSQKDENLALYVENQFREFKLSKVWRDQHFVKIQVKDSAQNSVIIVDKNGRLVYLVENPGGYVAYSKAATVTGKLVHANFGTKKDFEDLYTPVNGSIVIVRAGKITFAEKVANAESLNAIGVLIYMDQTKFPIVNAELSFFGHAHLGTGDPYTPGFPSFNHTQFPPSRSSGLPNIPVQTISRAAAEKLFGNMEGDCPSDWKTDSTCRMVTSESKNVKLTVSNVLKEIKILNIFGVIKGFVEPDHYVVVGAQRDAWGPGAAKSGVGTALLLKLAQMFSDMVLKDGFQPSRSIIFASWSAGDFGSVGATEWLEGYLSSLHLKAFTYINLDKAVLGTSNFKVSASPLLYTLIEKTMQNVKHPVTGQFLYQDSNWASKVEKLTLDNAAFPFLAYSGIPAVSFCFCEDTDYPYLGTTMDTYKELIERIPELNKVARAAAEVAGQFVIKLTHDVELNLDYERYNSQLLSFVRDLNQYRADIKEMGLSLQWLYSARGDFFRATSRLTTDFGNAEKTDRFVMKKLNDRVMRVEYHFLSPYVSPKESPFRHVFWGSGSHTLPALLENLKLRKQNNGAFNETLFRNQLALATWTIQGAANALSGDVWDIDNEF
Nature of the experiment: apparent Kd, cell-based assay.

Experiment [3] deals with T1, mouse transferrin receptor (mTfR) fused …. Put plainly: flow cytometry on CHO-mTfR-EGFP cells, 1 hr at 4 C, Alexa647 anti-mouse; apparent Kd, mean ± SEM of 3 experiments. On the procedure: (§2) FIGS. 13A-13B: Apparent Kd determination of 13C3-HC-VHH fusions on hTfR- and mTfR-expressing CHO cell lines. (A) CHO-hTfR-EGFP and CHO-mTfR-EGFP cells were incubated 1 hr at 4° C. with various concentrations of 13C3 fusions and detected with an Alexa647-conjugated anti-mouse antibody (1/400). Measurements were performed using flow cytometry. The ratio of fluorescence intensity for each point was normalized with the corresponding EGFP signal (receptor expression) and gave rise to the arbitrary unit. Data are presented as mean±SEM of 3 independent experiments. (B) Characteristics of 13C3 fusions: Molecular Weight (Da); Apparent Kd on human TfR (nM); Apparent Kd on mouse TfR (nM). Data are presented as mean±SEM of 3 independent experiments. NB: no binding, LB: low binding.
All experiments were performed in 96 well plates using 2×10⁵ cells/well, at 4° C. with shaking. CHO cell lines stably expressing the hTfR or the mTfR fused to EGFP or CHO WT cells were saturated with PBS/BSA 2% solution during 30 min to avoid non-specific binding, followed by incubation with purified VHHs at concentrations ranging from 50 μM to 5 μM for 1 hr. After one wash in PBS/BSA 2%, cells were incubated for 1 hr with an anti-6His tag antibody (mouse), washed twice with PBS/BSA 2%, and incubated for 45 min with an Alexa647-conjugated anti-mouse secondary antibody. After two last washes in PBS/BSA 2%, cells were fixed by incubation for 15 min with PBS/PFA 2%, washed once with PBS and finally resuspended in PBS and stored at 4° C. Fluorescence levels were assessed using an Attune NxT Flow Cytometer (Thermo Fisher Scientific).
On the technique in general: A flow cytometer gives signals particle by particle.

The target of experiment [4] is T2, human transferrin receptor (hTfR) fused …. Nature of the experiment: flow cytometry on CHO-hTfR-EGFP cells, 1 hr at 4 C, Alexa647 anti-hFc; apparent Kd, mean ± SEM of 3 experiments. On the procedure: as §2, with “8A-8B:” for “13A-13B:”, “VHH-Fcs and Fc-VHHs” for “13C3-HC-VHH fusions”, “VHH-Fcs or Fc-VHHs,” for “13C3 fusions and”, “anti-hFc” for “anti-mouse”, “selected VHH-Fcs and Fc-VHHs:” for “13C3 fusions:”, “experiments.” for “experiments. NB: no binding, LB: low binding.”
(§3) The binding properties of VHH-Fc and Fc-VHH fusion proteins with an affinity for the TfR were tested in flow cytometry experiments, and apparent affinity (K_{d app}) were determined. All experiments were performed in 96 well plates using 2-3×10⁵ cells/well, at 4° C. with shaking. […] After washes, cells were incubated for 1 hr with an Alexa647-conjugated anti-hFc antibody (Jackson ImmunoResearch). After 3 last washes and cells resuspension in PBS, fluorescence was immediately measured using a MACSQuant flow cytometer (Miltenyi), and results were analyzed with the MACSQuant software. […] The VHH-Fc and Fc-VHH K_{d app} were calculated using GraphPad Prism software (FIG. 8-B).

For experiment [5], the target named is T1, mouse transferrin receptor (mTfR) fused …. Put plainly: flow cytometry on CHO-mTfR-EGFP cells, 1 hr at 4 C, Alexa647 anti-hFc; apparent Kd, mean ± SEM of 3 experiments. On the procedure:
as §2, with “8A-8B:” for “13A-13B:”, “VHH-Fcs and Fc-VHHs” for “13C3-HC-VHH fusions”, “VHH-Fcs or Fc-VHHs,” for “13C3 fusions and”, “anti-hFc” for “anti-mouse”, “selected VHH-Fcs and Fc-VHHs:” for “13C3 fusions:”, “experiments.” for “experiments. NB: no binding, LB: low binding.”
as §3

For experiment [6], the target named is T2, human transferrin receptor (hTfR) fused …. Put plainly: apparent Kd, flow cytometry, CHO cells. As for the experimental part:
as §1

Changes are numbered by the printed parent chain.

T1 sequence (Q62351 whole entry, the tested form may be a part): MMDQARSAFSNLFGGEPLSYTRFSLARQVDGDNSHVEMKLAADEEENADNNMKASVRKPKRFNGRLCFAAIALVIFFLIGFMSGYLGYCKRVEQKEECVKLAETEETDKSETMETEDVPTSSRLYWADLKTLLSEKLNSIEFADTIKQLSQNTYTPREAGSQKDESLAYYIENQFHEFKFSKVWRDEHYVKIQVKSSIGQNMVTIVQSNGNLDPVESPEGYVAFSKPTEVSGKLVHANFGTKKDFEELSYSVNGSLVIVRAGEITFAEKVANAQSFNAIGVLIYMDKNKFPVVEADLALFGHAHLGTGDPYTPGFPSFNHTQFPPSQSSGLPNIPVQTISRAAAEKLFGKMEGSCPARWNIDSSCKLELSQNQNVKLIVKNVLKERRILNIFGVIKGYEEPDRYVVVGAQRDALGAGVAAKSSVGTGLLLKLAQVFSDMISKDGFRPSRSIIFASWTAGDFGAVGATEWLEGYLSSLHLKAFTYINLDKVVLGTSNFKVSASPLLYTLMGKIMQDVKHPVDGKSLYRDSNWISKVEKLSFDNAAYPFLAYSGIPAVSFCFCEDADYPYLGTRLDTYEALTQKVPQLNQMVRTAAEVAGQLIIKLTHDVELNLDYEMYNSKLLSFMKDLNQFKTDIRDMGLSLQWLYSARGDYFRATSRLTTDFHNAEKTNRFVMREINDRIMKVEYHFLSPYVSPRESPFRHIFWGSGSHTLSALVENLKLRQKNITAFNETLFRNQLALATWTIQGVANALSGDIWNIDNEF

B1: 13C3-LC-VHH A (antibody)
light: DVVMTQTPLSLPVSLGDQASISCRSGQSLVHSNGNTYLHWYLQKPGQSPKLLIYTVSNRFSGVPDRFSGSGSGSDFTLKISRVEAEDLGVYFCSQNTFVPWTFGGGTKLEIKRADAAPTVSIFPPSSEQLTSGGASVVCFLNNFYPKDINVKWKIDGSERQNGVLNSWTDQDSKDSTYSMSSTLTLTKDEYERHNSYTCEATHKTSTSPIVKSFNRNECSGSGGGGGMAEVQLVESGGGVVQPGGSLKLSCVASGTDFSINFIRWYRQAPGKQREFVAGFTATGNTNYADSMKGRFTISRDNTKNAVYLQIDSLKPEDTAVYYCYMLDKWGQGTQVTVSSAAA
heavy: QVQLQQSGPELVRPGVSVKISCKGSGYTFTDYAMHWVKQSHAKSLEWIGVISTKYGKTNYNQKFKGKATMTVDKSSSTAYMELARLTSEDSAIYYCARGDDGYSWGQGTSVTVSSAKTTPPSVYPLAPGSAAQTNSMVTLGCLVKGYFPEPVTVTWNSGSLSSGVHTFPAVLQSDLYTLSSSVTVPSSTWPSETVTCNVAHPASSTKVDKKIVPRDCGCKPCICTVPEVSSVFIFPPKPKDVLTITLTPKVTCVVVDISKDDPEVQFSWFVDDVEVHTAQTQPREEQFNSTFRSVSELPIMHQDWLNGKEFKCRVNSAAFPAPIEKTISKTKGRPKAPQVYTIPPPKEQMAKDKVSLTCMITDFFPEDITVEWQWNGQPAENYKNTQPIMDTDGSYFVYSKLNVQKSNWEAGNTFTCSVLHEGLHNHHTEKSLSHSPG
With B1, the Kd in experiment [1] was 106 nM.

B2: C12b-NT(8-13) (VHH)
VHH: QVQLVQSGGGLVQPGGSLRLSCAASGFTFSAYAMSWVRQAPGKGRELVASISRTGDGTYYADGMKGRFTISRDNAENTVSLQINSLKPEDTAIYYCGAGINPTKYWGQGTQVTVSS
On to B2, for which, in experiment [2], the Kd came to 1860 nM.

B3: 13C3-HC-VHH A (antibody, mouse IgG1)
heavy: QVQLQQSGPELVRPGVSVKISCKGSGYTFTDYAMHWVKQSHAKSLEWIGVISTKYGKTNYNQKFKGKATMTVDKSSSTAYMELARLTSEDSAIYYCARGDDGYSWGQGTSVTVSSAKTTPPSVYPLAPGSAAQTNSMVTLGCLVKGYFPEPVTVTWNSGSLSSGVHTFPAVLQSDLYTLSSSVTVPSSTWPSETVTCNVAHPASSTKVDKKIVPRDCGCKPCICTVPEVSSVFIFPPKPKDVLTITLTPKVTCVVVDISKDDPEVQFSWFVDDVEVHTAQTQPREEQFNSTFRSVSELPIMHQDWLNGKEFKCRVNSAAFPAPIEKTISKTKGRPKAPQVYTIPPPKEQMAKDKVSLTCMITDFFPEDITVEWQWNGQPAENYKNTQPIMDTDGSYFVYSKLNVQKSNWEAGNTFTCSVLHEGLHNHHTEKSLSHSPGGGGGMAEVQLVESGGGVVQPGGSLKLSCVASGTDFSINFIRWYRQAPGKQREFVAGFTATGNTNYADSMKGRFTISRDNTKNAVYLQIDSLKPEDTAVYYCYMLDKWGQGTQVTVSSAAA
light: DVVMTQTPLSLPVSLGDQASISCRSGQSLVHSNGNTYLHWYLQKPGQSPKLLIYTVSNRFSGVPDRFSGSGSGSDFTLKISRVEAEDLGVYFCSQNTFVPWTFGGGTKLEIKRADAAPTVSIFPPSSEQLTSGGASVVCFLNNFYPKDINVKWKIDGSERQNGVLNSWTDQDSKDSTYSMSSTLTLTKDEYERHNSYTCEATHKTSTSPIVKSFNRNEC
notes: mouse IgG1 13C3 (anti beta-amyloid protofibril) with VHH A at the C-ter of each heavy chain
B3: the Kd in experiment [3] was 11.3 nM.

B4: 13C3-HC-VHH A8 (antibody)
heavy: B3 heavy with D543A
light: B3 light
Consider B4, for which, in experiment [1], the Kd stood at 315 nM.

B5: 13C3-HC-VHH A6 (antibody)
heavy: B3 heavy with M541A
light: B3 light
Take B5: the Kd in experiment [3] was 23 nM.

B6: Fc-VHH B (Fc fusion)
VHH: EVQLVESGGGVVQPGGSLRLSCAASGEIFSINFMRWYRQAPGKQREWVAGFTRDGSTNYPDSAKGRFTISRDNAKNTVYLQIDSLKPEDTAVYYCYMLDTWGQGTQVTVSS
modifications: Genetic fusion with the VHH at the C-terminus of a human IgG1 Fc. It forms a homodimer, so it is bivalent.
notes: not shown: Human IgG1 Fc of the pINFUSE-IgG1-Fc2 vector (InvivoGen), N-terminal to the VHH, and any junction or linker residues
As to B6, the Kd in experiment [4] was determined as 1.5 nM; in experiment [5] it was 51 nM.

B7: VHH B-Fc (Fc fusion)
chain: B6 VHH
notes: not shown: human IgG1 Fc fragment of the pINFUSE-IgG1-Fc2 vector (InvivoGen)
Regarding B7, the Kd was determined as 1.2 nM in experiment [4] and 0.61 nM in experiment [5].

B8: Fc-VHH A (Fc fusion)
VHH: EVQLVESGGGVVQPGGSLKLSCVASGTDFSINFIRWYRQAPGKQREFVAGFTATGNTNYADSMKGRFTISRDNTKNAVYLQIDSLKPEDTAVYYCYMLDKWGQGTQVTVSS
modifications: Genetic fusion with the VHH at the C-terminus of a human IgG1 Fc. It forms a homodimer, so it is bivalent.
notes: as for B6
In the case of B8, the Kd in experiment [4] was 1.3 nM; in experiment [5] it was 22 nM.

B9: VHH A12 (C5^V12) (VHH)
VHH: B8 VHH with F51I
B9: the Kd in experiment [6] was found to be 363 nM.

B10: C5h18-NT(8-13) (VHH)
VHH: B8 VHH with Q44G, R45L, M63V, T74A, A77T, V78L, I82M, D83N, K86R
B10: in experiment [2], the Kd was 16.8 nM.
